Key:
C3G-AAAP = biological target: T1, C3G-AAAP (human, UniProt Q13905-1 4-1077, P283A | P284A | L286 | P287 | P289A | P453A | P454A | L456A | P457A | K459A | …); assay: ITC; single-PRM mutant of C3G in the cell titrated with CrkL or CrkL-SH3N, 25 °C, 300 mM NaCl, pH 7.5; SEDPHAT, 1:1 heteroassociation model; N is the competent fraction of C3G; details: both partners purified
T1 construct: human C3G isoform a, residues 4-1077; only P4 kept, P1, P2 and P3 mutated to Ala; source: E. coli BL21 (DE3), purified (IMAC, TEV digestion, reversed IMAC, SEC); not shown: His, N-terminal, cleaved; Halo, N-terminal, cleaved
T1 sequence (looked up): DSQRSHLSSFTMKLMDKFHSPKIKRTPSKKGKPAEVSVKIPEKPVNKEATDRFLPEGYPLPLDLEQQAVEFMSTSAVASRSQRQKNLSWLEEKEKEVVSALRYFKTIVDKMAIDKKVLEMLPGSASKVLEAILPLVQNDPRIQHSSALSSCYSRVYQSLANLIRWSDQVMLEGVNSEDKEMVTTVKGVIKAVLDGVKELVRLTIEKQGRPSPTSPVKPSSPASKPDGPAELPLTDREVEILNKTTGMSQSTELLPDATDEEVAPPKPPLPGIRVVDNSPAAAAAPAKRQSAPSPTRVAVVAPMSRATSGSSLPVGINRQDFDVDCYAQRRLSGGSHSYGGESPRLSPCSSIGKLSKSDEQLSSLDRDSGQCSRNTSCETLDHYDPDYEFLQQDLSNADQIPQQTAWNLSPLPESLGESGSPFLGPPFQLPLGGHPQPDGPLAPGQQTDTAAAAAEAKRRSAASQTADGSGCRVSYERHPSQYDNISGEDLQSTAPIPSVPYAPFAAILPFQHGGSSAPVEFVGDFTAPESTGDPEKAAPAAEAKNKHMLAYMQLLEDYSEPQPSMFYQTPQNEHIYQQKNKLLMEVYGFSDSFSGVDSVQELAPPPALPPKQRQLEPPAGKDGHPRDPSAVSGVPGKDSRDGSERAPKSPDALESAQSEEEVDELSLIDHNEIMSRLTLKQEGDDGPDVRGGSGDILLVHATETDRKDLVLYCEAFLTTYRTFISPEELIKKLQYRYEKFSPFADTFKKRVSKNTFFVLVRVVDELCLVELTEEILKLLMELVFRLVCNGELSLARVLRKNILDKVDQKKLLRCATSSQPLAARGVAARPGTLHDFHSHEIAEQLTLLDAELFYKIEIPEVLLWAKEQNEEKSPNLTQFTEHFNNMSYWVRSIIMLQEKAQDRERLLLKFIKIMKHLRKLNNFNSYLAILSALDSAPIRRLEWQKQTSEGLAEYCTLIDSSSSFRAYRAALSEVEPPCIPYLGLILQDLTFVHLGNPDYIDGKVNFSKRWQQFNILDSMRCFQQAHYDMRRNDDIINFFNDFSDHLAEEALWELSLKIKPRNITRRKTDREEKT

C3G-AAAP-Y554H = biological target: T2, C3G-AAAP-Y554H (human, UniProt Q13905-1 4-1077, P283A | P284A | L286 | P287 | P289A | P453A | P454A | L456A | P457A | K459A | …); assay: as above; details: both partners purified
T2 construct: human C3G isoform a, residues 4-1077; source: E. coli BL21 (DE3), purified (IMAC, TEV digestion, reversed IMAC, SEC); not shown: His, N-terminal, cleaved; Halo, N-terminal, cleaved
T2 sequence (looked up): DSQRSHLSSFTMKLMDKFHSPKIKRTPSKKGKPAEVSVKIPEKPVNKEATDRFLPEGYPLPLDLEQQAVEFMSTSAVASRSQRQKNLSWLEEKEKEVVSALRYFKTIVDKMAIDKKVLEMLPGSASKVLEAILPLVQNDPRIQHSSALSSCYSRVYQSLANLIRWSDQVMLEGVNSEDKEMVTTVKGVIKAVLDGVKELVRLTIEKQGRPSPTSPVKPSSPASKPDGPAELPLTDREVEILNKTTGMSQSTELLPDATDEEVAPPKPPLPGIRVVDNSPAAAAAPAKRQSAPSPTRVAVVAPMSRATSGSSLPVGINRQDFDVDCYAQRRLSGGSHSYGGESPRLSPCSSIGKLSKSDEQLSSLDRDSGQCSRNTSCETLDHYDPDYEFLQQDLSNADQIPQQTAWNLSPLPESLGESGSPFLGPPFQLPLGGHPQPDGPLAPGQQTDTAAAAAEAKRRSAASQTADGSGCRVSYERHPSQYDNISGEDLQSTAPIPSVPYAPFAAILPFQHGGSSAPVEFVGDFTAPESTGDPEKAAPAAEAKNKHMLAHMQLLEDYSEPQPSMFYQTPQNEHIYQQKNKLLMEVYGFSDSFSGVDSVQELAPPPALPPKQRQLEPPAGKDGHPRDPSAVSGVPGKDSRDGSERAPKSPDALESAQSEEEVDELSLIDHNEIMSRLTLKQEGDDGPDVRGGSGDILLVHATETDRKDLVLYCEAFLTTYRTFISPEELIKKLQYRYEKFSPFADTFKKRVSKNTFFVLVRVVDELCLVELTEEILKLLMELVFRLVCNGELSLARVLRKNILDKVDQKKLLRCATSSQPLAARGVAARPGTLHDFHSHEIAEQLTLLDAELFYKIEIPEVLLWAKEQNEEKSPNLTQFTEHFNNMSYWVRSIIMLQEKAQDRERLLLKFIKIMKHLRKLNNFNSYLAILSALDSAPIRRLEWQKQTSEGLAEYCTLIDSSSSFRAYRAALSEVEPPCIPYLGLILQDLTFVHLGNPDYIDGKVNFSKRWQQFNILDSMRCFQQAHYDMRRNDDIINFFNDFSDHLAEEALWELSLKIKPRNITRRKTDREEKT

Kd (C3G-AAAP) [nM] | Kd (C3G-AAAP-Y554H) [nM] | stoichiometry N (C3G-AAAP-Y554H) | stoichiometry N (C3G-AAAP) | Binder
2400 | – | – | – | CrkL (full-length) (natural protein, human, UniProt P46109 1-303, looked up, human CrkL, residues 1-303, in pETEV15b; also called Crk-like protein; source: E. coli BL21 (DE3), purified (IMAC, TEV digestion, SEC); not shown: His, N-terminal, cleaved) MSSARFDSSDRSAWYMGPVSRQEAQTRLQGQRHGMFLVRDSSTCPGDYVLSVSENSRVSHYIINSLPNRRFKIGDQEFDHLPALLEFYKIHYLDTTTLIEPAPRYPSPPMGSVSAPNLPTAEDNLEYVRTLYDFPGNDAEDLPFKKGEILVIIEKPEEQWWSARNKDGRVGMIPVPYVEKLVRSSPHGKHGNRNSNSYGIPEPAHAYAQPQTTTPLPAVSGSPGAAITPLPSTQNGPVFAKAIQKRVPCAYDKTALALEVGDIVKVTRMNINGQWEGEVNGRKGLFPFTHVKIFDPQNPDENE
2700 | 2400 | 0.57 | 0.71 | CrkL-SH3N (domain or fragment, human, UniProt P46109 125-182, looked up, human CrkL, SH3N domain, residues 125-182, in pETEV15b; source: E. coli BL21 (DE3), purified (IMAC, TEV digestion, SEC); not shown: His, N-terminal, cleaved) LEYVRTLYDFPGNDAEDLPFKKGEILVIIEKPEEQWWSARNKDGRVGMIPVPYVEKLV

— PMC9896810, “Crk proteins activate the Rap1 guanine nucleotide exchange factor C3G by segregated adaptor-dependent and -independent mechanisms” (Cell Communication and Signaling : CCS, 2023)
